Test results published in US20110053163A1, “Biomarker” (BIOVATOR TECHNOLOGIES AB, priority 2007, published 2011).

B1: Gal d 2: native allergen component from Phadia (Ovalbumin, Egg white) (protein, UniProt P01012 2-386, looked up)
Ovalbumin: GSIGAASMEFCFDVFKELKVHHANENIFYCPIAIMSALAMVYLGAKDSTRTQINKVVRFDKLPGFGDSIEAQCGTSVNVHSSLRDILNQITKPNDVYSFSLASRLYAEERYPILPEYLQCVKELYRGGLEPINFQTAADQARELINSWVESQTNGIIRNVLQPSSVDSQTAMVLVNAIVFKGLWEKAFKDEDTQAMPFRVTEQESKPVQMMYQIGLFRVASMASEKMKILELPFASGTMSMLVLLPDEVSGLEQLESIINFEKLTEWTSSNVMEERKIKVYLPRMKMEEKYNLTSVLMAMGITDVFSSSANLSGISSAESLKISQAVHAAHAEINEAGREVVGSAEAGVDAASVSEEFRADHPFLFCIKHIATNAVLFFGRCVSP
B2: Alt a 1: native allergen component from Phadia (Alternaria) (protein, UniProt P79085 19-157, looked up)
Major allergen Alt a 1: APLESRQDTASCPVTTEGDYVWKISEFYGRKPEGTYYNSLGFNIKATNGGTLDFTCSAQADKLEDHKWYSCGENSFMDFSFDSDRSGLLLKQKVSDDITYVATATLPNYCRAGGNGPKDFVCQGVADAYITLVTLPKSS
B3: Gal d 3: native allergen component from Phadia (Conalbumin, Egg, white) (protein, UniProt P02789 20-705, looked up)
Ovotransferrin: APPKSVIRWCTISSPEEKKCNNLRDLTQQERISLTCVQKATYLDCIKAIANNEADAISLDGGQAFEAGLAPYKLKPIAAEVYEHTEGSTTSYYAVAVVKKGTEFTVNDLQGKTSCHTGLGRSAGWNIPIGTLLHRGAIEWEGIESGSVEQAVAKFFSASCVPGATIEQKLCRQCKGDPKTKCARNAPYSGYSGAFHCLKDGKGDVAFVKHTTVNENAPDQKDEYELLCLDGSRQPVDNYKTCNWARVAAHAVVARDDNKVEDIWSFLSKAQSDFGVDTKSDFHLFGPPGKKDPVLKDLLFKDSAIMLKRVPSLMDSQLYLGFEYYSAIQSMRKDQLTPSPRENRIQWCAVGKDEKSKCDRWSVVSNGDVECTVVDETKDCIIKIMKGEADAVALDGGLVYTAGVCGLVPVMAERYDDESQCSKTDERPASYFAVAVARKDSNVNWNNLKGKKSCHTAVGRTAGWVIPMGLIHNRTGTCNFDEYFSEGCAPGSPPNSRLCQLCQGSGGIPPEKCVASSHEKYFGYTGALRCLVEKGDVAFIQHSTVEENTGGKNKADWAKNLQMDDFELLCTDGRRANVMDYRECNLAEVPTHAVVVRPEKANKIRDLLERQEKRFGVNGSEKSKFMMFESQNKDLLFKDLTKCLFKVREGTTYKEFLGDKFYTVISSLKTCNPSDILQMCSFLEGK
B4: Der p 1: allergenic protein tested for IL-10 induction (protein, UniProt P08176 99-320, looked up)
Peptidase 1: TNACSINGNAPAEIDLRQMRTVTPIRMQGGCGSCWAFSGVAATESAYLAYRNQSLDLAEQELVDCASQHGCHGDTIPRGIEYIQHNGVVQESYYRYVAREQSCRRPNAQRFGISNYCQIYPPNVNKIREALAQTHSAIAVIIGIKDLDAFRHYDGRTIIQRDNGYQPNYHAVNIVGYSNAQGVDYWIVRNSWDTNWGDNGYGYFAANIDLMMIEEYPYVVIL

Columns and labels:
MonoMac-6 cells = test: Cytokine Profile Assay (CPA): neopterin production by stimulated MonoMac-6 cells, ELISA; format: cell-based, human; conditions: with IFN-γ 100 U/ml
Description: (§1) The instructions of the manufacturers were followed. All these tests are enzyme immunoassays (EIA:s). The principle is that microtiter plate wells are labelled with a cytokine specific capture antibody. If cytokine is present in the samples added to the wells it will be captured to the bottom of the well. […] The reaction is thereafter measured as colour developed after addition of a substrate for the enzyme. The values for the test wells are compared with a standard curve obtained by adding a series of known amounts of cytokine. The values obtained for control wells with no substance added are used as background values for cytokine levels.
(§2) The myelomonocytic cell line MonoMac-6 (obtained from DSMZ, accession number ACC 124, Prof. H. W. L. Ziegler-Heitbrock, Inst. For Immunology, University of Munich, Munich) was cultured in cell culture flasks (Corning). Cells were cultured in RPMI 1640 medium (Gibco BRL), containing 20 mM HEPES and L-glutamine and supplemented with 10% heat-inactivated foetal bovine serum (Gibco BRL), penicillin (100 U/mL; Sigma-Aldrich), streptomycin (100 μg/mL; Sigma-Aldrich), sodium pyruvate (1.0 mM;Gibco BRL), human insulin (9 μg/mL; Gibco BRL) and non-essential amino acids (Gibco BRL) or cultured in Panserin 411 (Pan Biotech) supplemented with penicillin (100 U/mL), streptomycin (100 μg/mL).
The cells were split approximately 1:3 the day before stimulation. The stimulation procedure was performed in three steps. The first step was pre-dilution of test substances, to double the final concentration, in cell culture medium. Furthermore, Interferon-γ (IFN-γ) (100 U, PreproTech) was added in the cell culture media for 24 or 48 hours during stimulation of cells with test substances. The number of cells was then determined by trypan blue exclusion and the cells were diluted to twice the final test concentration (2×10^6 cells/mL) if not otherwise indicated and 100 μl of cell suspension was added per well in 96 well tissue culture plates (Corning). Finally, a 100 μl of pre-diluted test substance (triplicate cultures) was added to the tissue culture plates. […] The stimulated cells were cultured at 37° C., 5% CO2, for 24 or 48 hours. The cell suspension was transferred to new cell culture plates and stored at −20° C. until analyzed. Thereafter the cell suspension was analyzed for presence of neopterin and IL-10 by ELISA (IBL-Hamburg) following the manufacturers instructions.

MM6-cells = test: CPA: IL-10 levels of stimulated MM6 cells, ELISA; format: cell-based, human; conditions: 25-200 μg/ml; 48 hours; with IFN-γ 100 U/ml
Description: as §1, §2
The cells were split approximately 1:3 the day before stimulation. The stimulation procedure was performed in three steps. The first step was pre-dilution of test substances, to double the final concentration, in cell culture medium. […] The number of cells was then determined by trypan blue exclusion and the cells were diluted to twice the final test concentration (2×10^6 cells/mL) if not otherwise indicated and 100 μl of cell suspension was added per well in 96 well tissue culture plates (Corning). […] The cell suspension was transferred to new cell culture plates and stored at −20° C. until analyzed. Thereafter the cell suspension was analyzed for presence of neopterin and IL-10 by ELISA (IBL-Hamburg) following the manufacturers instructions.

[1] = serum free Panserin media, 48 hrs

Molecule | neopterin response (in words) (MonoMac-6 cells; [1]) | IL-10 levels (in words) (MM6-cells) | neopterin response (in words) (MonoMac-6 cells; proteins, RPMI+10% FCS, 24 hrs, over the tested concentrations) | neopterin response (in words) (MonoMac-6 cells; serum free Panserin media, 24 hrs)
B1 | increased in a dose dependent manner | induced increased IL-10 levels in a dose dependent manner | – | –
B2 | increased in a dose dependent manner | induced increased IL-10 levels in a dose dependent manner | increased in a dose dependent manner | increased in a dose dependent manner
B3 | increased in a dose dependent manner | – | – | –
B4 | – | induced increased IL-10 levels in a dose dependent manner | – | –
